T1: Recombinant human MerTK-human Fc Chimera protein (human, UniProt Q12866 26-499, limits assumed)
T1 construct: bought construct; also called MerTK-Fc (R&D systems, Cat #391-MR-100)
T1 sequence: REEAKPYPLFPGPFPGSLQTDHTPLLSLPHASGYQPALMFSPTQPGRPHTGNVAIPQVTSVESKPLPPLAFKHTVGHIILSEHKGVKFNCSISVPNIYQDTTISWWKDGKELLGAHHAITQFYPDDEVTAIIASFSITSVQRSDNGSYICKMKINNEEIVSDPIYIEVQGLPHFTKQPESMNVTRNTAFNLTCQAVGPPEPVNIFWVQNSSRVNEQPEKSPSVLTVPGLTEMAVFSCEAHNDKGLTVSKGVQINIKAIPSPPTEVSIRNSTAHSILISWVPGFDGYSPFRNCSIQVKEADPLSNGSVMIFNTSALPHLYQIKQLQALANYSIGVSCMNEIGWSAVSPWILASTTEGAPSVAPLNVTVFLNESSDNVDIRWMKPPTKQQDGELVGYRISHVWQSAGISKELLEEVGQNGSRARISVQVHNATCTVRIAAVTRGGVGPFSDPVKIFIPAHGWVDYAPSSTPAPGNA

T2: human MerTK (human, UniProt Q12866 21-999)
T2 sequence: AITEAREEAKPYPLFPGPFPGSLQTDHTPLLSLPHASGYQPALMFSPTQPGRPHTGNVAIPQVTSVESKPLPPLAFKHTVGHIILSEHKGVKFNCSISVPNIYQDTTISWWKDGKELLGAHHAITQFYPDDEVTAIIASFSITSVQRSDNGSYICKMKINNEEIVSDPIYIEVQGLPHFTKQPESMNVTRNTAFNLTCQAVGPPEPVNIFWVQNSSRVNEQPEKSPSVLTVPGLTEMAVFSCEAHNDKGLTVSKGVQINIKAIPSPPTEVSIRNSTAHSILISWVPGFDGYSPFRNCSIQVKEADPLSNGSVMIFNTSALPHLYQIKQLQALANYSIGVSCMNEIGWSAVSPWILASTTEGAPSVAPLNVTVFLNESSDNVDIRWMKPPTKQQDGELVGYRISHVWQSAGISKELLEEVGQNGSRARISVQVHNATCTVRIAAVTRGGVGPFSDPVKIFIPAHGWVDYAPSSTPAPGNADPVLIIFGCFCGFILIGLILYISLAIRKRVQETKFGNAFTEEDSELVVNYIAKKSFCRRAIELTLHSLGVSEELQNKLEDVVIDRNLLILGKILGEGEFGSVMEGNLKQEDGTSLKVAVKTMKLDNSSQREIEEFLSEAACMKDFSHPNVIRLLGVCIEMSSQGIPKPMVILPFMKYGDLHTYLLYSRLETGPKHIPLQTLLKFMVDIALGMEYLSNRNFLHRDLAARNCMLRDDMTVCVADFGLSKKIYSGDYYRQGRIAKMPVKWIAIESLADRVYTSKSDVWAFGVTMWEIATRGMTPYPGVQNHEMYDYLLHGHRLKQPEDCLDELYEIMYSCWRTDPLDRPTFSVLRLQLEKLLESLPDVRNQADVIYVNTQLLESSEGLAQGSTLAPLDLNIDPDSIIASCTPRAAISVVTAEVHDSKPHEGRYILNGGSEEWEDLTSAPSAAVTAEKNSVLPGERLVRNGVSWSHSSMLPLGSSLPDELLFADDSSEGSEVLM

T3: Full Axl (ECD domain of human Axl) (human, UniProt P30530 26-451)
T3 construct: also called human Axl ECD
T3 sequence: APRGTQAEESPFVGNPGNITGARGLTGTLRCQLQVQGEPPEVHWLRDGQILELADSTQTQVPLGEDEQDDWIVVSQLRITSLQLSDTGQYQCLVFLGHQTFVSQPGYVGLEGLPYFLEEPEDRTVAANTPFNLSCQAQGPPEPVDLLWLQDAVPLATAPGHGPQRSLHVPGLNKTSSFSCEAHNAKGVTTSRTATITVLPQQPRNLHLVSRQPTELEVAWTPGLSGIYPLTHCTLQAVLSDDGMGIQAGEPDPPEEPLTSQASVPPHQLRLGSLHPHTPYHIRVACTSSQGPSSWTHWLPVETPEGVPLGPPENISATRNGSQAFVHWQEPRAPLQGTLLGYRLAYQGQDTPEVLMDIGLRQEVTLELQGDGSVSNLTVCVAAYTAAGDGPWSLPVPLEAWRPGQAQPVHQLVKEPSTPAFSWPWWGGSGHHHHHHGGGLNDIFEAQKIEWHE


Key:
[1] = target: T1, Recombinant human MerTK-human Fc …; experiment: blocking ELISA, ProS-His on MerTK-Fc, Ab 66.6 nM, isotype=100%
Protocol: Briefly, rabbit anti-human IgG antibody (Jackson ImmunoResearch, Cat #309-005-008) was coated at 2 μg/ml onto high-protein binding plates at 4° C. overnight. After washing with 0.05% Tween20 in PBS three times, 5% BSA in PBS was added for 1 hour. Recombinant human MerTK-human Fe Chimera protein (R&D systems, Cat #391-MR-100) was added at 2 μg/ml for 1 hour and plates were washed before the addition of 40 μl of anti-MerTK hybridoma supernatants and 40 μl of His tag-conjugated recombinant Gas6 (R&D systems, Cat #885-GSB-050) at 3 μg/ml or His tag-conjugated recombinant ProS (R&D systems, Cat #9489-PS-100) at 20 μg/ml. After a further incubation for 1 hour, plates were washed and incubated for 1 hour with HRP-conjugated anti-6×His tagged antibody (Abcam, Cambridge, MA, Cat #ab1187). Plates were then washed and an HRP substrate, TMB, was added to develop the plates. The reaction was stopped by adding 50 μl 2N H₂SO₄ and the OD was measured using a spectrophotometer (BioTek).
Anti-MerTK antibodies were titrated to a final concentration from 66.6 nM to 4 pM and tested against anti-human MerTK antibody M6 (disclosed in WO2016/106221) or isotype control antibody.

[2] = target: T2, human MerTK; experiment: cell-based or functional assay
[3] = target: T3, Full Axl (ECD domain of human Axl); experiment: SPR (data not shown)
Protocol: Binding of anti-MerTK antibodies of the present disclosure to these domain-swapped chimera or deletion mutants was tested by Surface Plasmon Resonance (SPR) using Carterra LSA. Purified anti-MerTK antibodies were immobilized in duplicate on a HC30M chip (Carterra) by amine coupling, following the manufacturer's instructions (described previously).
Supernatants containing the constructs were diluted 1:1 with running buffer containing 0.5 mg/mL BSA (HBS-TE, Carterra; BSA, Sigma) and injected over the immobilized antibodies. The surface was regenerated with 10 mM Glycine pH2.0 after each construct injection. Sensorgrams were analyzed using Carterra Epitope software to identify patterns of construct binding. Loss of binding to MerTK constructs with domains deleted or swapped in from Axl and/or gain of binding to Axl constructs with MerTK domains swapped in were evaluated. Data from these studies were used to construct a domain binding map for anti-MerTK antibodies and their binding to various domains of human MerTK.

| Binder | Percent ProS ligand binding [1] [%] | Fold increase in PAKT over IgG control [2] [fold] | EC50 (nM), pAKT in SK-MEL-5 cells [2] [nM] | binding result [3] |
| --- | --- | --- | --- | --- |
| MTK-211 (antibody, human IgG1, V domains shown) VH: QVQLQQSGAELMKPGASVKLSCKATGYTFTGYWIEWVKQRPGHGLEWIGEILPGSGGSNYNEKFKGKATFTADTSSNTAYIQLSSLTTEDSAIYCCARGEPSYFSDAGFAYWGQGTLVTVSA VL: QIVLTQSPAVMSASPGEKVTMTCSASSSITYMHWYQQKPGTSPKRWIYDTSKLASGVPARFSGSGSGTSYFLTISSMEAEDVATYYCHQRSTYPYTFGGGTKLEIM | 106 | 4 |  |  |
| MTK-201 (antibody, human IgG1, V domains shown) VH: QVQLRQSGPGLVQPSQSLSITCTVSGFSLSNYGLHWVRQSPGKGLEWLGVIWSGGITDYNAAFISRLSIIKDNSRSQVFFKMNSLQADDTAIYYCARKGHDPYAMDFWGQGTSVTVSS VL: QIVLTQSPPIMSAFLGERVTMTCTASSSVSSSYLHWYRQMPGSSPKLWIYDTSNLASGVPARFSGSGSGTSYSLTISSMEAEDAATYYCHQYHHSPYTFGGGTKLEIK | 94.3 | 4.3 | 0.65 |  |
| MTK-216 (antibody, human IgG1, V domains shown) VH: EVQLVESGGGLVKPGGSLKLSCAASGFTFSDYGMHWVRQAPEKGLEWVAFISSGSTTIYYADTVKGRFTISRDNAKNTLILQMTSLRSEDTAIYYCTRGGFHLDYWGQGTTLTVSS VL: SIMMTQSPSSLAVSAGEKVTMGCKSSQSVLYSANQQNYLAWYQQKPGQSLKLLIYWASTRESGVPDRFTGSGSGTDFTLTISSVQAEDLAVYYCHQYFSSWTFGGGTKLEIK | 72.8 | 3.2 |  |  |
| MTK-214 (antibody, human IgG1, V domains shown) VH: QVQLQQPGAELVKPGASVKVSCKASGYTFTNYWMHWMKQRPGQGLEWIGRIHPFDSDTNYNEKFTDKATLTVDKSSSTAYMQLSSLTSEDSAVYYCAIGTLIYWGQGTTLTASS VL: DILLTQSPATLSVTPGETVSLSCRASQSIYKKLHWFQQRSHRSPRLLIKFASDSISGIPSRFTGSGSGTDYTLSINSVKPEDEAIYYCLQGYSTPLTFGAGTKLELK |  |  |  | no binding |
| MTK-207 (antibody, human IgG1, V domains shown) VH: QVQLKESGPGLVAPSQSLSITCTVSGISLTSYGVSWVRQPPGKGLEWLGIIWGDGSTNYHSALISRLSISKDNSKSQVFLKLNSLQTDDTATYYCAKGRYGNYEDWYFDVWGTGTTVTVSS VL: DIQMTQSPASLSASVGETVTITCRASGNIHNYLAWYQQKQGKSPQLLVYNAKTLAAGVPSRFSGSGSGTQYSLKINSLQPEDFGSYYCQHFWSIPLTFGAGTKLELK | 95.5 | 1 |  |  |
| MTK-208 (antibody, human IgG1, V domains shown) VH: QVQLQQPGAELVVPGASVRLSCKASGYTFINYWMHWVKQRPGQGLEWIGEIDPSDSYANYNQKFKDKSTLSLDKSSSTAYMQLSSLTSEDSAVYYCARCDYYGRLDYWGQGTTLTVSS VL: QVVLTQSPAIMSASPGEKVTITCSASSSVSYMLWFQQKPGTSPKLWIYSTSNLASGVPARFSGSGSGTSYSLTISRLEAEDAATYYCQQRSSYPPITFGAGTKLELK | 71.7 | 2.6 |  |  |
| MTK-230 (antibody, human IgG1, V domains shown) VH: EVQLQQSGPELVKPGASVRIPCKASGYTFSDYNMDWVKQSHGKSLEWIGNINPNIGGTIYSQKFKGKATLTVDKSSSTAYMELRSLTSEDTAVYYCARGDYGFASWGQGTLVTVSA VL: DIVLTQSPASLTVSLGQRATISCRASRSVSTSGYSYMHWYQQKPGQPPKLLIYLASNLESGVPARFSGSRSGTDFTLNIHPVEEEDAATYYCQHSREYPFTFGSGTKLEIK |  |  |  | no binding |
| MTK-203 (antibody, human IgG1, V domains shown) VH: QVQLQQPGAELVKPGASVKVSCKASGYTFTNYWMHWVKQRPGQGLEWIGRIHPFDTETNDNQKFKGKATLTVDKSSSTAYMQLSSLTSEDSAVYYCVIPANGGFAYWGQGTLVTVSA VL: ETTVTQSPASLSVATGEKVTIRCITSTDIGDDMNWYQQKPGEPPKVLISEGNSLRPGVPSRFSSSGYGTDFVFTIENTLSEDVADYFCLQSDNLPLTFGSGTKLEIK |  |  |  | no binding |
| MTK-224 (antibody, human IgG1, V domains shown) VH: QVQLQQPGAELVKPGASVKVSCKASGYTFTSYWMHWVKQRPGQGLEWIGRIHPFDSDTNYNQKFKGKATLTVDKSSSTAYMQLSSLTSEDSAVYYCSIAGFAYWGQGTLVTVSA VL: DIVMTQSPATLSVTPGDRVSLSCRASQIISDYLNWYQQKSHESPRLLIKYASQSISGIPSRFSGSGSGSDFTLSINSVEPEDVGVYYCQNGHSFPLTFGAGTKLELK |  |  |  | no binding |
| MTK-209 (antibody, human IgG1, V domains shown) VH: QVQLQQPGAELVKPGASVKVSCKASGYTFTNYWIHWVKQRPGQGLEWIGRIHPFDSEPNYNQKFKGKATLTVDKSSSTAYMHLTSLTSEDSAVYYCALASFAYWGQGTLVTVSA VL: ETTVTQSPASLSMAMGEKATIRCITSTDIDDKMNWYQQKPGKPPKLLISAGNTLRPGVPSRFSSSGYGTDFVLTVENMLSEDVADYYCLQGGALPLTFGSGTKLEIK |  |  |  | no binding |
| MTK-215 (antibody, human IgG1, V domains shown) VH: EVQLVESGGGLVKPGGSLKLSCAASGFIFSDYGMHWVRQAPEKGLEWVAYISSGSSTIYYGDTVKGRFTISRDNAKNTLFLQMTSLRSEDTAMYYCAKGGRYGAMDYWGHGTSVTVSS VL: DIVLTQSPATLSVTPGDSVSLSCRASQSISNNLHWYQQKSHESPRLLIKNPSQSISGIPSRFGARGSGTDFTLIINSVETEDLGVYFCQQSNSWPFTFGSGTKLEIK | 81.6 | 2.6 | 208 |  |
